This note sets out measurements from patent US9872922B2, “Anti-EFNA4 antibody-drug conjugates” (PFIZER, INC., priority 2013, dated 2018).

The target in this experiment is T1, human Ephrin-A4 (Homo sapiens, UniProt P52798).
T1 construct: purchased
T1 sequence (P52798 26-170): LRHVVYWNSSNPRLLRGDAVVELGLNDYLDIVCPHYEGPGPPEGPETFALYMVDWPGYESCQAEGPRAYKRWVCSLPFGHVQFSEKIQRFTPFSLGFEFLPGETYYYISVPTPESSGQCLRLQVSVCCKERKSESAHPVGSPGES
The experiment is described as follows: SPR steady state affinity of Eph receptors for Ephrin-A4. The class given is binding. As to conditions: for Kd: SPR BIAcore 2000, steady state affinity fit, captured Eph receptor, monomeric human Ephrin-A4 as analyte; for rank of affinity for Ephrin-A4 among nine Eph receptors: steady state affinity. The procedure: The properties of Ephrin-A4 binding to Eph receptors were further analyzed. Since anti-EFNA4 antibodies bind to Ephrin-A4 while the ligand is engaged with its Eph receptor, the affinity between these two macromolecules was determined. The affinities of commercially available Eph receptors and Ephrin-A4 were directly compared by surface plasmon resonance using a BIAcore 2000 (GE Healthcare) to determine the most relevant receptor. An anti-human antibody capture kit was used to immobilize recombinant Eph receptors on a CM5 biosensor chip. Prior to each antigen injection cycle, Eph receptors at the concentration of 2 μg/mL were captured on the surface with a contact time of 2 minutes and a flow rate of 5 μL/min. The captured antibody loading from baseline was constant at 150-260 response units. Following receptor capture and 1 min baseline, monomeric human Ephrin-A4 was flowed over the surface at concentrations of 400, 241, 145, 87, 53, 32, 19 and 12 nM for a 2 minute association phase followed by a 2 minute dissociation phase at a flow rate of 10 μL/min. Following each cycle, the anti-human capture surface was regenerated with 30 seconds contact time of 3M MgCl2 at 10 μL/min.
Biacore data was processed by initially calculating an average of the response at equilibrium (Req). The Req was then plotted versus concentration (M) and the steady state affinity fit was used to calculate the affinity and theoretical Rmax. In all cases, at least 5 different analyte concentrations were used to make this calculation. All data analysis steps were completed in BiaEvaluation Software 3.1 (GE Healthcare).
For orientation: SPR reads the build-up and loss of mass on a sensor chip optically.

Regarding “EphA2: recombinant Eph receptor captured on biosensor chip [reference compound]”, the Kd came to 31 nM and the “rank of affinity for Ephrin-A4 among nine Eph receptors” value is reported as “highest affinity”.

B1: EphA3 (protein)
chain: ELIPQPSNEVNLLDSKTIQGELGWISYPSHGWEEISGVDEHYTPIRTYQVCNVMDHSQNNWLRTNWVPRNSAQKIYVELKFTLRDCNSIPLVLGTCKETFNLYYMESDDDHGVKFREHQFTKIDTIAADESFTQMDLGDRILKLNTEIREVGPVNKKGFYLAFQDVGACVALVSVRVYFKKCPFTVKNLAMFPDTVPMDSQSLVEVRGSCVNNSKEEDPPRMYCSTEGEWLVPIGKCSCNAGYEERGFMCQACRPGFYKALDGNMKCAKCPPHSSTQEDGSMNCRCENNYFRADKDPPSMACTRPPSSPRNVISNINETSVILDWSWPLDTGGRKDVTFNIICKKCGWNIKQCEPCSPNVRFLPRQFGLTNTTVTVTDLLAHTNYTFEIDAVNGVSELSSPPRQFAAVSITTNQAAPSPVLTIKKDRTSRNSISLSWQEPEHPNGIILDYEVKYYEKQEQETSYTILRARGTNVTISSLKPDTIYVFQIRARTAAGYGTNSRKFEFETSPDSFSISGESSQ
The molecule B1 gave an equilibrium dissociation constant (Kd) of 77 nM.

B2: EphB2 (protein)
chain: VEETLMDSTTATAELGWMVHPPSGWEEVSGYDENMNTIRTYQVCNVFESSQNNWLRTKFIRRRGAHRIHVEMKFSVRDCSSIPSVPGSCKETFNLYYYEADFDSATKTFPNWMENPWVKVDTIAADESFSQVDLGGRVMKINTEVRSFGPVSRSGFYLAFQDYGGCMSLIAVRVFYRKCPRIIQNGAIFQETLSGAESTSLVAARGSCIANAEEVDVPIKLYCNGDGEWLVPIGRCMCKAGFEAVENGTVCRGCPSGTFKANQGDEACTHCPINSRTTSEGATNCVCRNGYYRADLDPLDMPCTTIPSAPQAVISSVNETSLMLEWTPPRDSGGREDLVYNIICKSCGSGRGACTRCGDNVQYAPRQLGLTEPRIYISDLLAHTQYTFEIQAVNGVTDQSPFSPQFASVNITTNQAAPSAVSIMHQVSRTVDSITLSWSQPDQPNGVILDYELQYYEKELSEYNATAIKSPTNTVTVQGLKAGAIYVFQVRARTVAGYGRYSGKMYFQTMTEAEYQTSIQEKLPL
In turn, B2 returned a dissociation constant (Kd) of 135 nM.

B3: EphA10: recombinant Eph receptor captured on biosensor chip (protein)
chain: EEVILLDSKASQAELGWTALPSNGWEEISGVDEHDRPIRTYQVCNVLEPNQDNWLQTGWISRGRGQRIFVELQFTLRDCSSIPGAAGTCKETFNVYYLETEADLGRGRPRLGGSRPRKIDTIAADESFTQGDLGERKMKLNTEVREIGPLSRRGFHLAFQDVGACVALVSVRVYYKQCRATVRGLATFPATAAESAFSTLVEVAGTCVAHSEGEPGSPPRMHCGADGEWLVPVGRCSCSAGFQERGDFCEACPPGFYKVSPRRPLCSPCPEHSRALENASTFCVCQDSYARSPTDPPSASCTRPPSAPRDLQYSLSRSPLVLRLRWLPPADSGGRSDVTYSLLCLRCGREGPAGACEPCGPRVAFLPRQAGLRERAATLLHLRPGARYTVRVAALNGVSGPAAAAGTTYAQVTVSTGPGAPWEEDEIRRDRVEPQSVSLSWREPIPAGAPGANDTEYEIRYYEKGQSEQTYSMVKTGAPTVTVTNLKPATRYVFQIRAASPGPSWEAQSFNPSIEVQTLGEAASGSRDQSPA
Turning to B3, the dissociation constant Kd worked out at 431 nM and the “rank of affinity for Ephrin-A4 among nine Eph receptors” value is recorded as “lowest affinity”.

B4: EphA1 (protein)
chain: KEVTLMDTSKAQGELGWLLDPPKDGWSEQQQILNGTPLYMYQDCPMQGRRDTDHWLRSNWIYRGEEASRVHVELQFTVRDCKSFPGGAGPLGCKETFNLLYMESDQDVGIQLRRPLFQKVTTVAADQSFTIRDLVSGSVKLNVERCSLGRLTRRGLYLAFHNPGACVALVSVRVFYQRCPETLNGLAQFPDTLPGPAGLVEVAGTCLPHARASPRPSGAPRMHCSPDGEWLVPVGRCHCEPGYEEGGSGEACVACPSGSYRMDMDTPHCLTCPQQSTAESEGATICTCESGHYRAPGEGPQVACTGPPSAPRNLSFSASGTQLSLRWEPPADTGGRQDVRYSVRCSQCQGTAQDGGPCQPCGVGVHFSPGARGLTTPAVHVNGLEPYANYTFNVEAQNGVSGLGSSGHASTSVSISMGHAESLSGLSLRLVKKEPRQLELTWAGSRPRSPGANLTYELHVLNQDEERYQMVLEPRVLLTELQPDTTYIVRVRMLTPLGPGPFSPDHEFRTSPPVSRGLTGGE
Turning to B4, binding was put at a Kd of 414 nM.

In general, Kd refers to the equilibrium constant for the complex coming apart.
